From US20040043438A1
Where a chain is given by its changes, count along the chain named. Each block holds one binder with its values, some of them ahead of it.

Assays:
[1] = molecular target: specific IgE bound to the surface of human basophils from birch pollen allergic patients; experiment: cell-based or functional assay
[2] = molecular target: serum IgE from a pool of birch allergic patients; experiment: fluid-phase IgE-inhibition assay; competes with biotinylated Bet v 1.2801 for pooled serum IgE
[3] = molecular target: serum IgE from a pool of birch allergic patients; experiment: fluid-phase IgE-inhibition assay; competes with biotinylated Bet v 1 no. 2801 for pooled serum IgE

histamine release in human basophil: reduction of potency against Bet v 1.2801 [1]: 3 to 10 fold
factor by which the affinity is lowered against Bet v 1.2801 [2]: 3 to 4 fold
B1: Mutant Bet v 1 (2628) (protein)
chain: GVFNVETETTSVIPAARLFKAFILDGDNLFPKVAPQAISSVENISGNGGPGTIKKISFPEGFPFNYVKDRVDEVDHTNFKYNYSVIEGGPIGDTLESISNEIKIVATPDGGSILKISNKYHTKGDHEVKAEQVEASKEMGETLLRAVESYLLAHSDAYN

amount to reach 80% inhibition [3]: 400 ng
factor of decrease against recombinant Bet v 1 (at 80% inhibition) [3]: 20 fold
factor of decrease in affinity against recombinant Bet v 1 (at 50% inhibition) [3]: 5 fold
B2: Bet v 1 (Asn28Thr, Lys32Gln, Glu45Ser, Pro108Gly) mutant (protein)
chain: B1 chain with V5Y, N28T, K32Q, N65K, S97K, P108G, E134K
